# Data: publication doi:10.1101/2023.07.07.548133
# Biological target: cytosolic PAS domain (PASc) of the bacterial citrate sensor histidine kinase (CitA)
# Test: MINFLUX fluorescence nanoscopy
substance,measurement,value
cytosolic PAS domain (PASc) of the bacterial citrate sensor histidine kinase (CitA) (domain or fragment),stoichiometry N,2
